Laboratory results: publication PMC5027281 (Nature Communications, 2016)

Tests used:
Details in all cases: both partners purified
[1] = target: Recombinant full-length HA of A/California/04/09 (H1-CA09) (influenza A virus A/California/04/09, UniProt C3W5S1); experiment: BLI
[2] = target: T1, Recombinant full-length HA of A/Vietnam/1203/04 (H5-VN04) (Influenza A virus A/Vietnam/1203/2004 …, UniProt Q5EP31); experiment: BLI
[3] = target: T1, Recombinant full-length HA of …; experiment: ELISA

Binder | Kd [1] [pM] | koff [1] [s⁻¹] | kon [1] [M⁻¹ s⁻¹] | Kd [2] [pM] | koff [2] [s⁻¹] | kon [2] [M⁻¹ s⁻¹] | binding result [3]
3I14-gHmL IgG1 (germline heavy chain, mature light chain) (antibody, V domains shown) VH: QVQLVESGGGVVQPGRSLRLSCAASGFTFSSYGMHWVRQAPGKGLEWVAVISYDGSNKYYADSVKGRFTISRDNSKNTLYLQMNSLRAEDTAVYYCAKLPSPYYYDSRFVWVAASYFDYWGQGTLVTVSS VL: NFMLTQPPSASGTPGQRVTISCSGSSSNIGGNTVHWFQQLPGTAPKLLIYTNSLRPSGVPDRFSGSKSGTSASLAISGLQSEDEADYYCAAWDDSLNGQVFGGGTKLTVL | < 1 | < 1e-07 | 155000 | 1950 | 0.000844 | 434000 | –
3I14-mHgL IgG1 (mature heavy chain, germline light chain) (antibody, V domains shown) VH: QVQLLESGGGVVQPGRSLRLSCAASGFTFSNYGMHWVRQAPGKGLEWVAIISFDGSKKYYANSVKGRSTISRDNSKNTLSLQMNSLGPEDTALYYCAKLPSPYYFDSRFVWVAASAFHFWGQGILVTVSS VL: not shown | < 1 | < 1e-07 | 138000 | – | – | – | –
F10 scFvFc (scFv, V domains shown) VH: QVQLVQSGAEVKKPGSSVKVSCTSSEVTFSSFAISWVRQAPGQGLEWLGGISPMFGTPNYAQKFQGRVTITADQSTRTAYMDLRSLRSEDTAVYYCARSPSYICSGGTCVFDHWGQGTLVTVSS VL: QPGLTQPPSVSKGLRQTATLTCTGNSNNVGNQGAAWLQQHQGHPPKLLSYRNNDRPSGISERFSASRSGNTASLTITGLQPEDEADYYCSTWDSSLSAVVFGGGTKLTVL | – | – | – | – | – | – | binds
39.29 scFvFc (scFv, V domains shown) VH: VQLVESGGGVVQPGKSPRLSCAASGPTFSSYAVHWVRQAPGKGLEWVTLISYDGANQYYADSVKGRFTISRDNSKNTVYLQMNSLRPEDTAVYYCAVPGPVFGIFPPWSYFDNWGQGILVTVSS VL: IVLTQSPATLSVSPGERATLSCRASQVISHNLAWYQQKPGQAPRLLIYGASTRASGIPARFSGSGSGTDYTLTITSLQPEDFAVYYCQHYSNWPPRLTFGGGTKVEIK | – | – | – | – | – | – | binds
